Source: US20150150157A1, “PREPHENATE DEHYDROGENASES AND AROGENATE DEHYDROGENASES THAT ARE INSENSITIVE TO EFFECTOR FEEDBACK INHIBITION AND METHODS OF USING THE SAME” (Wisconsin Alumni Research Foundation, priority 2013, published 2015)

What was measured:
Assay type in all cases: biochemical
[1] = system: CM activity in the plastid fraction; test: CM activity in plastidic fraction of soybean leaf with and without effector; settings: 1 mM effector
Description: (§1) CM activity from crude plant extracts and from cytosolic and plastidic fractions (FIG. 4I) was determined in the presence and absence of 1 mM L-Tyr or L-Trp (FIG. 4I) by detecting phenylpyruvate formation using the same HPLC method for HPLA detection (see above). Assays were set up as described above but were incubated for 60 min at 37° C. before addition of 1 N HCl. Phenylpyruvate was detected by UV absorbance at 270 nm and quantified by comparison to the authentic phenylpyruvate standard (Sigma-Aldrich).
(§2) Ten grams of 4-week-old soybean leaves were harvested at the end of the night to deplete starch. The fresh tissues were homogenized using a Polytron (Brinkmann, Westhury, N.Y.) in 10 ml of the plastid isolation buffer (0.5 M sorbitol, 20 mM HEPES (pH 7.4), 10 mM KCl, 1 mM MgCl2, 1 mM EDTA, 5 mM DTT and 1% BSA) (Kong and Rawsthorne. Plant J, 6: 795-805 (1994)). The homogenate was filtered through two layers of micracloth. The residual homogenate left on the micracloth was homogenized again in 10 ml of the isolation buffer and passed through two layers of micracloth, which was repeated once more to yield ˜30 ml of homogenate. The combined homogenate was centrifuged at 2,500 g for 5 min. The pellet was washed twice with the isolation buffer, resuspended in 4 ml of lysis buffer (25 mM HEPES (pH 7.5), 50 mM KCl) and left on ice for 20 min to rapture the plastids. […]

[2] = system: CM activity in the cytosol; test: CM activity in cytosolic fraction of soybean leaf with and without effector; settings: 1 mM effector
Description: as §1, §2

[3] = Qualitative HPLC detection of PDH activity in E. coli cell lysates expressing candidate enzymes; settings: 2 mM prephenate, saturating conditions
Description: ADH and PDH reactions contained 25 mM HEPES (pH 7.5), 50 mM KCl, 10% ethylene glycol, 1 mM NADP (or NAD^+), 2 mM substrate (L-arogenate or prephenate, respectively) unless otherwise noted. Arogenate was prepared by enzymatic conversion from prephenate (Sigma-Aldrich), as previously reported. Reactions were started by addition of enzyme from various sources and incubated at 37′ C. for a given amount of time, as noted below,
HPLC-based methods were used to directly detect the final products of ADH and PDH assays, Tyr and HPP, respectively from crude E. coli extracts (FIG. 3B and FIG. 3C) and crude plant extracts (FIG. 2A and FIG. 6). For HPLC detection of PDH activity, reactions were incubated for 45 min and terminated by addition of NaBH4, which converts the reaction product HPP (which produced multiple peaks; FIG. 6) into hydroxyphenyllactic acid (HPLA), followed by neutralization with 100 μl of 6 N HCl. The conversion and recovery rate was 80±1.5% s.d. which was taken into account for the calculation of specific activity from crude plant extracts (FIG. 2C). HPLA was detected as a single peak (FIG. 2A) after being separated by HPLC (Agilent 1260, Santa Clara, Calif.) equipped with a ZORBA X SB-C18 column (Agitent) using a 6-min isocratic elution at 25% methanol in 0.1% phosphoric acid, followed by a 20-min linear gradient of 25-60% methanol at a flow rate of 1.0 ml/min. HPLA was detected using UV absorbance at 270 nm and quantified by a calibration curve generated from the authentic HPLA standard (Sigma-Aldrich). For HPLC-based detection of ADH activity (FIG. 3B), reactions were incubated for 45 min and terminated by addition of methanol to a final concentration of 66% (v/v). The product, Tyr, was derivatized with OPA and separated on a ZORBAX eclipse-XDB C18 column (Agilent) using a 30-min linear gradient of 20-45% methanol in 0.1% animonium acetate at a flow rate of 0.8 ml/min. Tyr was detected by UV absorption at 336 nm and quantified on the basis of a calibration curve generated by the authentic Tyr standard (Acros, Geel, Belgium).
The crude enzyme extracts were first subjected to PDH and ADH assays using saturating conditions to screen for any detectable PDH and/or ADH activity (FIG. 3B and FIG. 3C). ADH activity was detected from all five candidates. In contrast, PDH activity was detected only in Glyma11a35760 and Glyma18g02650 as well as their closest homolog from Medicago (Mt3g071980) but not in Glyma5g07870, Glyma17g13150 and Glyma14g05990 (FIG. 3C).

[4] = Inhibition analysis: L-Tyr sensitivity of ADH activity of recombinant AtADH2; settings: for ADH activity: 1 mM L-arogenate, 1 mM NADP+, 37° C., 15 min
Description: (§3) ADH and PDH reactions using GmPDH1, Glyma11g35760, MtPDH1 and AtADH2 (FIG. 5A) contained 200 mM HEPES (pH 7.3), 50 mM KCl, 10% ethylene glycol, 1 mN4 NADP^+ and 1 mM substrate (L-arogenate or prephenate, respectively). Reactions were started by addition of enzyme and incubated at 37° C. for 15 min in the presence of increasing concentrations of effectors: L-Tyr FIG. 5A), L-Phe, L-Trp and HPP. Tyr was dissolved in basic conditions (0.025 N NaOH) to dissolve at high concentrations (up to 10 mM), though 200 mM HEPES maintained the final reaction pH at 7.6. Tyr sensitivity of purified recombinant GmPDH1 and MtPDH1 was also tested at prephenate concentrations ranging from […] to 59 μM, below the K values for GmPDH1 and MtPDH1, while keeping the L-Tyr concentration constant at 1 mM (FIG. 13). Enzyme activity was measured for the production of reduced cofactor (NADPH) at 340 nm using a spectrophotometer, except for crude soybean extracts, which were analyzed by HPLC after 45 min incubation and reduction to HPLA as described above.

[5] = Inhibition analysis: L-Tyr sensitivity of PDH activity, crude E. coli extract expressing Glyma11g35760; settings: for PDH activity: crude E. coli extract
Description: For recombinant protein expression, the cloned pFT28a vectors were introduced into Rosetta-2 E. coli competent cells (Novagen) and cultured overnight at 37° C., 200 r.p.m. in 10 ml LB medium containing kanamycin (100 μg/ml) and chloramphenicol (100 μg/ml). Two milliliters of the overnight culture were transferred to 50 ml LB medium with the same antibiotics and further incubated at 37° C. and 200 r.p.m. until the OD600 reached 0.3. The temperature was then changed to 18° C. and, after 1 h, isopropyl β-D-I-thiogalactopyranoside (IPTG, […] final concentration) was added to induce recombinant protein expression. After overnight incubation at 18° C. under constant shaking at 200 r.p.m, cultures were harvested by centrifugation at 2,000 g for 30 min at 4° C. and the pellet was resuspended in an appropriate volume of lysis buffer (25 mM HEPES, pH 7, 50 mM KCl, 10% ethylene glycol, 1 mM phenylmethylsulfortyl fluoride (PMSF) and 1 mM DTT) calculated on the basis of the formula (OD600×ml volume of culture)/30. The resuspended pellet was sonicated three times for 15 s. The cell lysate was centrifuged at 16,000 g for 10 min at 4° C. and the supernatant was applied to a column containing 500 μl PerfectPro Ni-NTA resin (5 PRIME, Hamburg, Germany). The column was washed with ten times the bed volume of wash buffer 1 (50 mM sodium phosphate buffer, pH 8.0, 300 mM NaCl, 20 mM imidazole) followed by ten times the bed volume of wash buffer II (50 mM sodium phosphate buffer, pH 8.0, 300 mM NaCl, 40 mM imidazole) and then wash buffer III (50 mM sodium phosphate buffer, pH 8.0, 300 mM NaCl, 60 mM imidazole). The recombinant enzymes containing an N-terminal His6 tag were eluted from the resin with 1 ml of elution buffer (50 mM sodium phosphate buffer, pH. 8.0, 300 mM NaCl, 500 mM imidazole) and desalted as described above. The purity of the purified recombinant enzymes was estimated by running on SDS-PAGE gel (FIG. 12) and analyzing with ImageJ (http://imagej.nih.gov/ij/). The recombinant enzyme of Glyma11g35760 was tested for Tyr sensitivity (FIG. 5A) using crude E. coli extract as its purification was not successful owing to its low expression (FIG. 3B and FIG. 3C) and insolubility.
as §3

With `N[C@@H](Cc1c[nH]c2ccccc12)C(=O)O` [L-Trp, tryptophan] the “induction of CM activity in the plastid fraction” value [1] was “approximately threefold” and the “CM activity in the cytosol” value [2] was “increased”.

For `N[C@@H](Cc1ccc(O)cc1)C(=O)O` [L-Tyr, Tyrosine], the “CM activity in the plastid fraction” value [1] was “completely inhibited” and the “CM activity in the cytosol” value [2] was “only slightly decreased”.

B1: Glyma14g05990: soybean enzyme having predominately arogenate dehydrogenase activity (protein)
chain: MSTWSLKIGVVGFGSFGQFLAKTMIKQGHTLRATSRTDYSLLCLPMGIQFFRDVAAFLEADNDVILVCTSILSLSEVLSSMPLTCLKRSTLFVDVLSVKEHPRNLLIKVLPEESDILCTHPMFGPDSGKDGWQDLTFVYDKVRIRDEAICSSFLHIFASEGCRMLQMSCEEHDKIAAKSQFITHTIGRTLAEMDIKSTPIDTKGFHSLVQLKDTTIRDSFDLYSGLFLHNRFAVQELENLEHALHKVKEMLVQRKSEELGLEKTEC
modifications: Glycine max
With B1 the “PDH activity (qualitative detection)” value [3] was “not”.

B2: AtADH2: Arabidopsis thaliana arogenate dehydrogenase 2, recombinant enzyme, inhibited by L-Tyr (protein, UniProt Q9LMR3 37-358, looked up)
Arogenate dehydrogenase 2, …: IDAAQIFDYETQLKSEYRKSSALKIAVLGFGNFGQFLSKTLIRHGHDLITHSRSDYSDAANSIGARFFDNPHDLCEQHPDVVLLCTSILSTESVLRSFPFQRLRRSTLFVDVLSVKEFPKALFIKYLPKEFDILCTHPMFGPESGKHSWSGLPFVYDKVRIGDAASRQERCEKFLRIFENEGCKMVEMSCEKHDYYAAGSQFVTHTMGRVLEKYGVESSPINTKGYETLLDLVENTSSDSFELFYGLFMYNPNALEQLERLDMAFESVKKELFGRLHQQYRKQMFGGEVQSPKKTEQKLLNDGGVVPMNDISSSSSSSSSSS
For B2, the “reduction of ADH activity” value ([4]; 100 μM L-Tyr) was about 75%, the ADH activity ([4]; L-Tyr 0 mM) was 923 ± 34 uKat/mg and the ADH activity ([4]; L-Tyr 0.01 mM) was 766 ± 35 uKat/mg. The ADH activity ([4]; L-Tyr 0.1 mM) was 251 ± 45 uKat/mg and the “ADH activity in the presence of L-Tyr” value ([4]; ≧1 mM L-Tyr) was “abolished”.

B3: Glyma11g35760: soybean PDH enzyme, paralog of Glyma18g02650, tested as crude E. coli extract (protein)
chain: MTTMSTSSSSQSLKIGIVGFGNFGQFLAKTMIKQGHTLTATSRSDYSQLCLQMGIHFFRDVSAFLAADIDVIVLCTSILSLSEVVGSMPLTSLKRPTLFVDVLSVKEHPRELLLRELPEDSDILCTHPMFGPQTANNGWTDHTFMYDKVRIRDEATCSSFIQIFATEGCKMVQMSCEEHDRAAAKSQFITHTIGRTLGEMDIQSTPIDTKGFETLVKLKETMMRNSFDLYSGLFVYNRFARQELENLEHAFYKVKETLMIQRSNGEQGHKRTES
modifications: Glycine max
notes: soybean PDH enzyme, paralog of Glyma18g02650, tested as crude E. coli extract
In the case of B3, the “inhibition of PDH activity by L-Tyr” value ([5]; E. coli extract expressing the enzyme) is reported as “not inhibited”, the PDH activity ([5]; L-Tyr 0 mM) is reported as 1219 ± 76 pKat/mg and the PDH activity ([5]; L-Tyr 0.01 mM) is reported as 1211 ± 39 pKat/mg. It also gave a PDH activity ([5]; L-Tyr 0.1 mM) of 1173 ± 16 pKat/mg, a PDH activity ([5]; L-Tyr 1.0 mM) of 1250 ± 63 pKat/mg and a PDH activity ([5]; L-Tyr 10 mM) of 1109 ± 79 pKat/mg. The “PDH activity (qualitative detection)” value [3] was “detected”.
